assay: yeast display, Sf9 membrane polyspecificity reagent, FACS + sequencing; frameworks hold sequencing errors
In short: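 Genes from sorted yeast were amplified by colony PCR, read by MiSeq 2 × 250 sequencing and filtered on CDR length. These cells carried a synthetic nanobody library in Saccharomyces cerevisiae BJ5465 and were sorted by FACS into low and high (top ~1%) gates on anti-HA and streptavidin fluorescence. Polyreactivity is labelled according to the gate of origin.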

| Sequence | polyreactivity (PSR sort gate) |
| --- | --- |
| QVQLVESGGGLVQAGGSLRLSCAASGLIFYENAMGWYRQAPGKERELVAAINYDGDSTYYADSVKGRFTISRDNAKNTVYLQMNSLKPEDTAVYYCAADGGWVLFWMDYWGQGTQVTVSS | low polyreactivity |
| QVQLVESGGGLVQAGGSLRLSCAASGFTFYRNAMGWYRQAPGKERELVAAISGSGGRTYADSVKGRFTISRDIAKNTVYLQMNSLKPEDTAVYYCAASGYSSYRRYSTSNGYWGQGTQVTVSS | high polyreactivity |
| QVQLVESVGGLVQAGGSLSLSSAASGRTFGNYAMGWYRQAPGKERELVADITRRGGSTSYADSVKGRFTISRDNAKNTVYLQMTSLKTEDTAVYYCNKAAEGSSHYDYWGLGTQVTVSS | low polyreactivity |
| QVQLVESGGGLVQARVSLRLSCAASGRIYGYTMGWYRQAPGKERELVAAITRNGGSTYYADSVKARFTISRDNSKNTVSLQMNSLKPEDNAVYYCAARNAFGTYYAWGQGTQVTVAS | high polyreactivity |
| QVQLVESGGGLVQAGGSLRLSCAASGSILTGNAMGWYRQAPGKERELVAGITVGGTSTYYADSVKGRFTISRDNAKNTVYLQMNSLKPEDTAVYYCAAGYRSYWGVYDFDYWGQGTQVTVSS | low polyreactivity |
| QVQLVESGGGLVQAGGSLRLSCAASGRIFYYNSMGWYRQAPGKERELVASITGSGGSTYYADSVKGRFTISRDNAKNTVYLQMNSLKPEDTAVYYFAKREYLYPFYYVAKYDYWGQGTQVTVSS | low polyreactivity |
| QVQLVESGGGLVQAGGSLRLSCAAYGRTFIVNTMGWYRQAPGKERQLVAAITARGGRTYYADSVKGRFTISRDNAKNTVYLQMNSLKPEDTAVYYCNARTPPREAERYYWGQGTQVTVSS | low polyreactivity |
| QVQLVESGGGLVQAGGSLRLSCAASGSTFWFYAMGWYRQAPGKERELVATITIGGRTYADSVKGRFTISRDNAKNTVYLQMNTLKPEDTAVYYCAARRGRLEYVNGRYDYWGQGTQVTVSS | low polyreactivity |
| QVQLVESGGGLVQAGGSLRLSCAASGFTFVYYAMGWYRQAPGKERELVAAISTRGGSTYYADSVKGRFTISRDNAKNTVYLQMTSLKPEDTAVYYCAARSYPPGLRFDYWGQGTQVTVSS | high polyreactivity |
| QGQRVESGGGLVQAGGSLRLSCAASGRIFTQYAMGWYRQAPGKARELVAASNASDGSTYADSVKGRFTISRDNAKNTVYIQINSLKPEDTAVYYCNVTGGPYDFTRWSEFDHWGQGTHVTVSS | low polyreactivity |
| QVQLVESGGGLVQAGGSLRLICAASGLTFSRYAMGWYRQAPGKERELVAAITWSGSSTYYADSVKGRFTISRDKAKNTVYLQMNSLKPEDTAVYYCAARYGYSRGPYYRSDYWGQGTQVTVSS | high polyreactivity |
| QVQLVESGGGLVQAGGSLRLSCAASGFTFKYYAMGWYRQAPGKERELVAVINQSGGSTSYADSVKGRFTISRDNAKNTVYLQMNSLKPEDTAVYYCAALVGLFWLWNYDYWGQGTQVTVSS | high polyreactivity |
| QVQLVESGGGLVPAGGSLRLSCAASGSTFPGYAMGWYRQAPGQERELVAAISTSGGRTYYADSVKGRFTISRDNAKNTVYLQMNSLKPEDTAVYYCARVAFYVAHGGFAFGRYYYWGQGTQVTVSS | low polyreactivity |
| QVQLVESGGGLVQAGGSLRLSCAASGTTFVWYAMGWYRQAPGKERELVAAISLSGGSTYYADSVKGRFTISRDNAKKTVYLQMNSLKPEDTAVYYCAAETYAYLFHTYDYWGQGSQVTVSS | low polyreactivity |
| QVQLVESGGGLVQAGGSLRLSCAASGRTFVYYVMGWYRQAPGKERELVAGISRGGSTDYADSVKGRFTISRDNAKNTVYLQMNSLKPEDTAVYYCNRLLRRHLYIFYYWGQGTQVTVSS | high polyreactivity |
| QVQLVESGGGLVQAGGSLRLSCAASGFTFYDYDMGWSRQAPGKERELVATITWSGGRTYYADSVKGRFTISRDNAKNTVYLQMNSLKPEDTAVYYCAADEPDRDYGYWGQGTQVTVSS | low polyreactivity |
| QVQLVESGGGLVQAGGSLRLSCAASGSTFWYYGMGWYRQAPGKERELVAAITRGGSTYYADSVKGRFTISRDNAKNTVYLQMISLNPEDTAVYYCAAGISVRWSPSYYYWGQGTQVTVSS | high polyreactivity |
| QVQLVESGGGLVQAGGSLRLSCAASGSIFFSNAMGWYRQAPGKERELVAAITSTGGSTYYADSVKGRFTISRDTAKNTVYLQLNSLKPEDTAVYYCAAASRRGYYYWGQGTQVTVSS | high polyreactivity |
| QVQLVESAGRLVKAGGSLRLSCDASGSIFKGNAMGWYRQEPGKERELVAAISRTGGSTYYADSVKGRFTISRDNAKNTVYLQMNSLKPEDTAVYYCAAYSASTYDSWGQGTQVTVSS | high polyreactivity |
| QVQLVESGVGLVQAGGSLRLSCAASGIIFKVYAMGWYRQAPGKERELVAAISKSGGSTYYADSVKGRFTISRDNAKNTVYLQMNSLKPEDTAVYYCAARDYARYASYYYWGLGTQVTVSS | high polyreactivity |
| QVQLVESGGGLVQAGGSLRLSCAASGGIFGSYAMGWYRQAPGKERELVAAISGGSTYYADSVKGRFTISRDNAKNTVYLQMNSLKPEDTAVYYCAAGWSVWYQDFDYWGQGTQVTVSS | high polyreactivity |

| Sequence | polyreactivity (PSR sort gate) |
| --- | --- |
| QVQLVESGGGVVEAGGSLRLSCAASGSTLGFYARGWYRQAPGKEWEFVAAITRSGTSTYYADSVKGRFTISRDNAKNTVYLQMTSLKPEDTAVYYCPAESYYGVPYDSWGQGTQVTLSS | high polyreactivity |
| QVQLVESGGGLVQAGGSLRLSCAASGSIFEYYPMGWYRQAPGKERELVAAISWSGGSTYYADSVKGRFSISRDNAKNTVYFQMNSLKPEDTAVYYCAARGYWGQGTQVTVSS | low polyreactivity |
| QVQLVESGGGLVQAGGSLRLSCAASGRTFSYYAMGWYRQAPAKERELVAAIRSTGSTNYADSVKGRFTISRDNAKNTVYLQMNSLKPEDTAVYYCAARKYYQRGYDYWGQGTQVTVSS | high polyreactivity |
| QVQLVESGGGLVQAGGSLRLSCAASGSTFGANAMGWYRQAPGKEREFVAAISRSGVRTYYADSVKGRFTISRDNAKNTVYVQMNSLKPEDSAVYYCAADGYWLTYTRYDYWGQGTQVTVSS | low polyreactivity |
| QVQLVESGGGLVQAGGSLRLSCAASGRTFTSYPMGWYRQAPGKERELVAAISQGGGRTYYADSVKGRFTISRDNAKNTVYLQMNSLKPEDTAVYYCNTVSLSLRYDYWGQGTQVTVSS | high polyreactivity |
| QVQLVESGGGLDQAGGSLRLSCAASGFIFRAYAMGLYRQAPGKERELVAAISWGGGSTYYADSVKGRFTISRDNAKNTVYLQMNSLKPEDTAVYYCAAEYEAYAYEYWGQGTQVTVSS | high polyreactivity |
| QVQLVESGGGLVQAGGSLRLSCAASGITFDSYAMGWYRQAPGKERELVATISRSGTTTYYADSVKGRFTISRDNAKNTGYLQMNSLKPEDTAVYYCNTLRDYWTYHFYGAVRDGYDYWGQGTQVTVSS | low polyreactivity |
| QVQLVESGGGLVQAGGSLRLSCAASGGIFAYYGMGWYRQAPGKERELVAAIWIGGNTYYADSVKGRFTISRDNAKNTVYLQMNSLKPVDTAVYYCATEGFVYSWLWEFEYWGQGTQVTVSS | low polyreactivity |
| QVQLVESGGGLVQAGGSLRLSCAASGFTCYNYAMGWYRQAPGKERELVAAITSSGTSTYYADSVKGRFTISRDNAKNTVYLQMNSLKPEDTAVYYCATYVAYHRGYSTYDHWGQGSQVTVSS | low polyreactivity |
| QVQLVESGGGLVQAGGSLRLSCAASGSIFFNTMGWYRQAPGKERELVAAINTSGGRTYYADSVKGRFTISRDNAKNTVYLQMNSLKPEDTAVYYCATTAYSQYYTYYYWGQGTQVTVSS | high polyreactivity |
| QVQLVESGGGLVQAGGSLRLSCPASGITFGSYAMGWYRQAPGKERELVAAITSGGGTNYADSEKGRFTISRDNAKNTVYLHMNSLKPEDTAGYYCAARYYYLGTRYGYWGQGTQVTVSS | low polyreactivity |
| QVQLVESGGGLFQAGGSLRLSCAASGLTFGGNAMGWYRHAPGKERELVAAISSGGSTNYADSVKGRFTISRDNAKNTVYLQMNSLKPEDTAVYYCAVEAWSVPPYDYWGQGTQVTVSS | low polyreactivity |
| QVQLVESGGGLVQAGGSLRLSCAASGITFLVYVMGWYIQAPGKERELVAAISSGGSTYYADSVKGRFTISRDKAKNTVYLQMNSLKPEDTAVYYCAAERKLYGLYDYWGQGTQVTVSS | low polyreactivity |
| QVQLVESGGCLLQAGGSLSLSCAASGSTSPANTMGWYRQAPGKEREFVAGISRRGGRTYYADSVKGRFTISRDTAKNTVYLQMNSLKPEDTAVYYSATALIVRGPSRYEYWGHGTQVTVSS | high polyreactivity |
| QVELVVSGGGLVQAGGSLRLSCAASGRIFYRYAMGWYRQAPGKERELVAAISGRGGSTYYADSVKGRFTISRDNAKNTVYLQMNSLKPEDTAVYYCNALPVYRSLAYEVDYWGQGTQVTVSS | high polyreactivity |
| QVQLVESGGGLVQAGGSLRLSCAASGSIFAAYAMGWYRQAPGKERELVAAITSGGGTYYADSVKGRFTISRDNAKNTVYLQMNSLKPEDTAGYYCNAGNTYNRVIWPYYYWGQGTQVTVSS | high polyreactivity |
| QVQLVESGGGLVQAGGTLRLSCAASGMTFSRNGMGWYRQAPGKEREVVADISYRGGRTYYADSVKGRFTFSRDNAKNTVYLQMHSLKPEDTAVYYCNAVFLVGVGPTSDYWGQRTQVTVSS | high polyreactivity |
| QVQLVESGGGLVQAGGSLRLICAASGFTFRGYAMGWYRQAPGKERELVAAIRRGVITNYADSVNGRFTISRDNAKNTVYLQMNSLKPEDTAVYYCAAGNITPYRYYHGYYQSIYDYWGQGTIVTVSS | low polyreactivity |
| QVQLVESGGGLVQAGCSLRLSCAASGSIFAYYDMGWYRQAPGKERELVAAITTRDDDTYYADSVKGRFTISRDNAKNTVYLLLNSLKPEDTAVYYCAAAWWDYGNGKYDYWGQGTQVTVSS | low polyreactivity |
| QVQLVESGGGLVQAGGSLRLSCADSGSTFKYYAMGWYRQAPGKEREFVASINWSGVSTYYADSVKGRFTISRDNPKNTVYLQMNSLKPEDTSVYYCAARVRGKYDYWGQGTQVTVSS | high polyreactivity |
